This passage reports binding result and Kd results from article PMC3597700.

For series [1], the target named is T1, RHA dsRBD1 (Homo sapiens, UniProt Q08211 1-91). Kind of series: crystal structure.
The target of series [2] is T2, RHA dsRBD2 (Homo sapiens, UniProt Q08211 165-264). The experiment in a line: crystal structure.
Series [3] deals with RHA dsRBD1+2 (Homo sapiens, UniProt Q08211 1-264). The experiment in a line: ITC. (Isothermal titration calorimetry measures the heat released or taken up as one component is titrated into another.)
RHA dsRBD1+2, sequence (Q08211 1-264): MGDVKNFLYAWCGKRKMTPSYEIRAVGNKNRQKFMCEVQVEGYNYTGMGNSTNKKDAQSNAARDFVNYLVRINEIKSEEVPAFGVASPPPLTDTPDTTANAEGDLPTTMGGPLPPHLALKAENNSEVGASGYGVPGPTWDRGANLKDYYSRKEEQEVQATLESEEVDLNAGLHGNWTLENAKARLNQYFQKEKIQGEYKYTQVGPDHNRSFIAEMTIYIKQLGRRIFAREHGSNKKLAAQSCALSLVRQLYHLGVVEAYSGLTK
The target of series [4] is RHA dsRBD2 N234A/K235A/K236A (Homo sapiens, UniProt Q08211 165-264, N234A;K235A;K236A). The experiment in a line: ITC.
RHA dsRBD2 N234A/K235A/K236A, sequence (Q08211 165-264 N234A/K235A/K236A): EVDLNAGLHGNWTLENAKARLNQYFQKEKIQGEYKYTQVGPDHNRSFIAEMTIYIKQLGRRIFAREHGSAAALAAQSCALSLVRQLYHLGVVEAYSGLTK
Series [5] concerns the target RHA dsRBD1 N53A/K54A/K55A (Homo sapiens, UniProt Q08211 1-91, N53A;K54A;K55A). The experiment in a line: ITC.
Series [6] concerns the target RHA dsRBD1 Y9A (Homo sapiens, UniProt Q08211 1-91, Y9A). The experiment in a line: ITC.
The target in series [7] is RHA dsRBD1 N30A (Homo sapiens, UniProt Q08211 1-91, N30A). Kind of series: ITC.
RHA dsRBD1 N30A, sequence (Q08211 1-91 N30A): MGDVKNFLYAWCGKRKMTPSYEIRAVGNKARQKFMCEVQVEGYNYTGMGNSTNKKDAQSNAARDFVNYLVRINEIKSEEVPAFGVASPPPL
The target in series [8] is T1, RHA dsRBD1. Kind of series: ITC.
In series [9] the target is RHA dsRBD2 H207A (Homo sapiens, UniProt Q08211 165-264, H207A). The experiment in a line: ITC.
RHA dsRBD2 H207A, sequence (Q08211 165-264 H207A): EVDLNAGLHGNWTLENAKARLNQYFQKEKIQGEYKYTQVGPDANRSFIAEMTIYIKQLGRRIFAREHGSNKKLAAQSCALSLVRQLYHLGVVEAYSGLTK
Series [10] has as its target T2, RHA dsRBD2. The experiment in a line: ITC.
The target in series [11] is RHA dsRBD2 K182A (Homo sapiens, UniProt Q08211 165-264, K182A). The experiment in a line: ITC.
RHA dsRBD2 K182A, sequence (Q08211 165-264 K182A): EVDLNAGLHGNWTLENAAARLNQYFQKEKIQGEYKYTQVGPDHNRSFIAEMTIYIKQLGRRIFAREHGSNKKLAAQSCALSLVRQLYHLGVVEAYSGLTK
In series [12] the target is GST-RHA dsRBD1+2 (Homo sapiens, UniProt Q08211 1-264). Kind of series: pull-down.
GST-RHA dsRBD1+2, sequence (Q08211 1-264): as the sequence (Q08211 1-264) above
Series [13] concerns the target GST-RHA dsRBD2 (Homo sapiens, UniProt Q08211 165-264). Kind of series: pull-down.
Series [14] addresses GST-RHA dsRBD1 (Homo sapiens, UniProt Q08211 1-91). Kind of series: pull-down.

T2 sequence (Q08211 165-264): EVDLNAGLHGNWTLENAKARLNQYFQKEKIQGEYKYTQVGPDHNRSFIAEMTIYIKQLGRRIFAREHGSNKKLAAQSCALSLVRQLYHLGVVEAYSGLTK
T1 sequence (Q08211 1-91): as the sequence (Q08211 1-91 N30A) above, with A30N counted along it
RHA dsRBD1 Y9A, sequence (Q08211 1-91 Y9A): as the sequence (Q08211 1-91 N30A) above, with Y9A, A30N counted along it
RHA dsRBD1 N53A/K54A/K55A, sequence (Q08211 1-91 N53A/K54A/K55A): as the sequence (Q08211 1-91 N30A) above, with A30N, N53A, K54A, K55A counted along it
GST-RHA dsRBD2, sequence (Q08211 165-264): as the sequence (Q08211 165-264) above
GST-RHA dsRBD1, sequence (Q08211 1-91): as the sequence (Q08211 1-91 N30A) above, with A30N counted along it

B1: GC10 duplex (dsRNA)
RNA 1: GCGCGCGCGC
RNA 2: GCGCGCGCGC
As to B1, the binding result in [1] and in [2] was “binds” throughout.

B2: siRNA21 duplex (dsRNA)
RNA 1: AGACAGCAUUAUGCUGUCUUU
RNA 2: AGACAGCAUUAUGCUGUCUUU
modifications: 5' phosphate
The Kd is the equilibrium constant for the complex coming apart. Take B2: the dissociation constant Kd is 106 nM in series [3]; 14.5 µM in series [7]; 5.93 µM in series [8]; 291 µM in [9]; 13.6 µM in series [10]; 334 µM in series [11]. Moreover, the binding result in series [4], in series [5] and in series [6] was “no binding” in each case.

B3: 5'-biotinylated siRNA21 duplex (dsRNA)
RNA 1: AGACAGCAUUAUGCUGUCUUU
RNA 2: AGACAGCAUUAUGCUGUCUUU
For B3, the binding result in series [12], in [13] and in series [14] was “binds” each time.
